From the NTF2 design screens of Basanta et al. (2020)

experiment: protease stability score; higher = more stable; yeast display proteolysis, trypsin and chymotrypsin;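 further: log10 excess protease needed over predicted unfolded state with 0 meaning unfolded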

Sequence | protease stability score
DHERLKEFIKIQQENNPDQLRNQMDPNVKARVGDKEFKGREQVVKWLKRIMDQADHIHYDDLKSQGNSVTINAVVEVNGKSFQYNMVVEFHNGRIREIKVEVRNHRVKEILERIEG | 1.62
DHERLRKLAKDFVKILKHGDPDRMRELVDKDVRVQIGDKEVHGREKVDEMVENIRHRADHIDFTSFHASNGRVTVDVVVNVDGKNTRVTWRIVMSNGRVKMIQVTDG | 1.82
DHERVKDHATDLAKILRQNNERELKKLADKDVHFQIGDKTYHGREKFEEWVHELINTVDHIRITDFDVDGDRVRIDADFDINGKTVRVVIVVKLKNGKIKSQKVQFRDKDLQRKFNS | -0.152
DHETHMEKFFEDQQKIRNKGDEDKVRNLFDPNARATYGDKTYQGREQIDKFENDVLRRVDHVNVQLRNVRVHNGRADFDARVVFKVNGRHERNHIRITVEINNGRIVIQSVHYG | 0.141
DHETQNDLATEIVRVYKHGNPDDWSKLVDPNARVVYGDKEIHGREDAMSFMKKLRNQADSIKVKDYKVKNGRVDVVVIIVVNGRHATLQFTIQFHNGKATDVKFDPKQWHELQK | 1.28
DHEVAKTMMEEWQKALENGDDKKLKELYDPDGEWEADDEQDQGTEVIEKLMEKVKKQGLKFQVRKAKVEGDKFTVVYDLHVGNKTATFEVEVHVEGGRIKKVKAKADEEAKKLITEG | 1.98
DHEVHKLFDDFLHAEETGNEEQLTELVDENAQIQVGDKEVHGRDHINKMHADLRRTMDLKLKDYKVNNNGNNVDVDMKYINEDNGKPSKVRMRAIYTFQNGRIKNVHQNRDQ | -0.366
DHHARTQAEHLLEALRNGNEDQLMKLIDPNARFRYGDKEVHGSEQFREQVHTLKREIRMDVKEYRFTVEGNRLVVKVTAILDTNGKPDTRDVDNHAIVHNGKIKQFTVDNKS | -0.134
DHHDRKLFKHLITALRDGDEDKVKKNVDPNVKIDIGDTTWNGREQWAKDVREKREEMRVDIKLKRLTASNGRVTAKLRVRNKHDGRPHQHEFTVEFRRSNGRWKEIHVDDDK | -0.008
DHHHARELLTRVIRALITGDEKKVADQIDPNAEFQYGDKTFHGRDQVRRFVKEWKKHVDHVELKTYDARGDKAKAIFVVDHNGHKKQVVLQLKVENGRVKSIRITDG | 1.74
DHKAVEMVEQMWKNLNEGDFKKFTRLIDKDVKYVYGDRRVEGREELVNRFHRKMREMRFQIVRMSLTDHGDKVVVNYTVQFNKNGRPDRKVQRLLVKVENGTIKELRVQEHQ | 1.62
DHKDQSKMVKDLNRVMQHGDSKQMRSMVDENAEVQYGDNQVHGRDQIREMEKRIRRRVDKVKFDSVDVEGNKVRIQYVVNVNGQNIEQVLHVTFKNGKIKNQEYRVRDPRLEKQFKS | 0.237
DHKEARDVAQTMMHLLKHGDFEQIVRNADPNAHFVVGDKEYHGRDNLRKVLKRLHDQVDHISFRTYKVDEDTAKLDATVQINGRNYRMDVLVHFHNGRIKDLNIKVTDEDTQREADK | 2.08
DHKEETKKKDEARRVLETNDPRKKLKLMDPNARANVGDKRYHGREELKRRADEERKRVDHAEVKRVEANGDHIIVDFVFVVNGKTKRNSLNINMHNGRVKEVNVESR | -0.143
DHKEHAEKFAQQLDEAHKKNDPRQFLRLMDKDVRVSVGDKTVHGKENIRKQLEDLTKQADSIEFKVKSIRVTGDKVRLEFEVVYRHNGRHSRQTVVMYLKLHNGRAVIKSVQVK | 0.159
DHKELKKYLEQVEKNDFDKLKKNVDEDARVNYGNKTWHGREQVQKYWDDLKKRIDHFDVTHMTVKGDKLHYIVRMNVNGQNFEHKVVIEIQNGKIKQVDARYRDEKQKEKLEKVAD | 0.868
DHKHLQEQARRLVDALVTGDPEEAANLADPNARARIGDKTIHGREQFRNAMQRFSNQADHVQVDHFTVQGDKVQVKMSINVNGQSFDVVMVARMDNGHIRHIRFDPDQIRQVQG | 0.052
DHKLHHQLHRLIKALQTGDPDKIRELVDPNVEFVVGEKRYKGREDYVTDFKERLDHIRLDNDVRDVEVHGNKMRANIQTEVQDDGQPRTYQVRLDASAHNGKVKSLKVDKKP | -0.059
DHKQEATKNLKKFEDVMKTNDPEKAKNLADENVRVQVGDKTVHGKEKMVSTMLEEMRKVDHFSVHLQEVSFHGDKLNLSYEFVLNQNGKERKDVRVFHAANHNGRFLVEELHQG | -0.322
DHNDHARRLFEQWVQAIEHNDPDQIRKNLPPNVKVTIGDKTISGRENVVRTVKRELHRVDHIRIQLDHVEVQGDKIVLRANVRQDHNGQNRHFTLRLVANTFNGREQFIDIQLN | -0.121
DHQASEKLSQLWKALNTGNPEQFSKNADPHVRHHVGDTSIQGREQFNEQIKREQKEMRVQIQVQSIHVRGDKIRVRAVYTFHINGQPRKDTFVAKFVVKNGRIKKASIRIDPRKVKERNS | 0.11
DHQDARKVRKNFEDNNFESFKSMFDENAEVRVGDKELHGKENIRDQIRKEKEQIDHVQYRSFHVQGEKVDLKYEFQVNGRHIDVRASAELKNGRIKTHSVEVTTEEDKKLLKEVLQ | -0.271
DHQELAEKWFRTFVTNQERGDEESLVKMADKDVRLHIGDKTIHGREQFHHWIQELRRRVDHQSMTVRHIDVQGDKIRIDAEAVFNVNGRNDKFKIDIEAEIQGDKVVLKRIIFN | 1.63
DHQESAHRLHNTLKTIWSENDPDKYSELIDENVHVDVGDKKFRGRDEAKKLAEHIMRRADHIEIRLTSIDVHGNTIRIVVELNFNHDGTSSSVTVVVVLENHNGNFRVKKIRES | 0.017
DHQVVRSFMDVLETGDWDKLKDLVDPNAKMFYGNKDLTGRDAQTHFSEVMKRRVDEIKIDSYDMKGDSAWADFVLVFNGVEIRFILRVQFHNGNVISMRFEVTDPKQKTQLDRAAS | 0.714

Sequence | protease stability score
DHRAEEAFRRWEEALKTGDPDQAKEQVDPNARFEYGDESIRGMDNVQKWLRTQMEKQRIDVKVKDVKTRPGHVEISAHVVWEHNGTPNSATFVQQNTATGDDVKHVKVQEHK | -0.27
DHRAFELAKNILEAIRTNDPDTVKHQLDKNATLRYGEFEVHGREDASRFVETLIRKMRVEFDIKDYHVHGDSAVMDADVKVERNGRPDTRKLNVNVNVHNGKMSHIVFELRG | 0.693
DHRAIHLVRENLDARRHNDSKKAREMADKDATFHIGDRFIHGMDSFVKTLTDENREMRIEIERMSYNDRPGRVEVKQDVRENHNGSPKRFTYHAEMHVQGDHVRTQTEHRTD | -0.281
DHRALSQVEQFMNALQQGDEKRLMELADPNVKIIIGDKDVHGREEWDRQVHKRRHEIQYEVRRVKMHVNGDTVHVKIRAVATINGKPFEVEYTANFKIDNGHITHIDWQLPDEYLKRVKS | 0.062
DHRAVEVIKEMFKALQTGDERRIVEMADKDATATVGDKRVHGMKEAAHDIATEFNEMRFQLSIKRVQHSGNNVKADVEATFHHNGKPRKVQVVIVLRLHNGKVQEMSIRNDG | 1.17
DHRQQVRDIFKEMQDARRKGNEKTLQKLVDPNAKAEYGDKTYHGRENVAKMLLDEAKRVDHFEVHIKTFSIKNGTARVHADVVVKHDGQKRSTDVFYVFRDHNGQMLLVRARTQ | 1.38
DHRVEEVFRRYLEAFQDNNPEKAMRLVDPNAKLSVGDTTLDGREDIKKFVRTRHNEQRVKYEIKQIEVDGDKIRVVADLKNQHNGTPDRDTVKMSASVRNGKIKDLKQTTDK | -0.132
DHSDAEQVHRAIEENNFDELVDLADENVSVTIGDYTLHGREDFKHYQEVLKRQVDNVEFKTIDIQGDKIDRTVEATVNGRRYVARIVVKVKNGKIKSQKVHATDEKQNEQLRENLK | -0.043
DHSEVTDVFRKLVKVLRTGDESTAAELFDEDVEFEIGDKTYKGREEAHDLLRQFQDMADHVQLNDVRVQGNKVHAEFRADVNGRELHFTQSAEVHNGKIKKVVIRFTNEEQYREIHS | 1.59
DHSKHLTNVIKRMQRLFKHGNFSEVAKQADKDVEVRVGDKTYNGRDQYVDSQRKIEHQVDNADLKFQHVDNQGDKIDVIYEFVVVHNGRHEKTTEQAVLSLHNGRVRATKIHDS | -0.102
DHSQLEIVIEWVKALQEGDPDKAKKNMDKNVKLDIGDKRLEGRDEVRKEMETMKKSARFDLHIDSYNVHGDHAELRVTFRNDHNGRPKKDRNTIRATAHNGRITYLSVEHTG | 0.708
DHTAARIAKEIMENQDKGDEDRLRKLLDKDVRLKYGDKEIHGREHAARTLKRERRQIRIDRRIRHVEIQGDEVSIEFDMHVQHNGKPRDRKAVMVFRMQGDKLEEMTQDNTK | 0.191
DHTADRIIRNLMDALNQNDEDKAVKLMDENVRFRIGDKEYQGRERWKKLLQDWNKHASIRYTVDSMDRRGEKVHVKFELKVNINGNPVTVRVTVEFEIRNGKIKSAVYEMDPDDAKEVWS | 0.925
DHTELETLARRMVDAMRTGDPDKLAELADPNVKVTYGDKSVHGHEQFTKQMKEFVDQYDHVRVERLKIEGDKVHADLNAEHNGRSSRFIMLITVKNGRVKHLKFKNR | 0.472
DHTEVKKQNEQVRKALTQGDPKTMKKMFDPNVKLQVGEKSYRGHKDLQKWAEEMHKRVDHARVDSVHARGNHVTVDVVFNINGREKRLTLRVSYHNGRINEVHMTDG | 0.745
DHTIDEVFKQFETAKNDNDPDQLKKNADPNVDYTVGDQFVEGREHAADDIRRRREQQRNEIRSLRHSVQGNDIDVSVDMEVEHNGKPSDFTQRIDVVAHNGKIKHQTAHQEG | -0.505
DHTKEARQVRRFVHALETGDPDRAASQLDKNAKVTVGDKRVHGRENVRTLMQEFIREADHFRLRDMRDDGEKFNLLIEFEVNGKRLRMHIDIVISNGTMKVVRFDPNVVKRMEN | 0.144
DHTKIARRLMEDLTDARRHNDPHHVKNLLDKDVKIRVGDKSVDGEEEATKQMIERQRRADHIEMRIKSVSTHNGQLRIIFDVREVHNGQEHTDREEVQFDNENGKVRMVNVQQK | -0.056
DHTKQAETVARQMLEQLRDGNPEELKNMFDENVEADIGDTRYHGRESMVEFWQTILTRVDRNRLHIVDVQVQGNKIIVRVRVSFDRNGRQKEEEYVIVVRVNNGHYTADVVSLT | 0.772
DHTVLEKAATALKQGDTDKMNKLADENVKMKVGDKEFHGRQQVNTALKRIKEQVDHRSIRSIENRGNRVTIDANVVVNGKHVDVNFILVVHNGRLKMFQIRVTDPQVHRRLSEIMS | 0.722
DKDAAQLFHQYLEAKKHNNEDQLRENMDPNVQWTIGDKVITGREEAAKRMVDENREQRVEISHMQVHDNNGHAVFRADVRYKHNGKPSRSRFVVRVQARNGKIHSVKVERHS | 0.076
DKDAARRFNEMLQQIHTGNEQEVSKLVDEDADVKVGEKDVHGREQIHSEVKKMRDELSYRVQVNEFDDRGDKIRFNIRVRKNTNGKPKTSRNNLTVVVHNGRIKEVKAESDG | 0.095
DKDAARRVQEMIRQQQTGNPTEVEEQADKDVEFKVGDKVVHGRRELKKEVETHKRESRLEVQKIEIKDHGDKAKLIIYFRVHENGEPRKRTVQVRAKYQNGKVKMIEVDSTK | -0.006
DKDALRVFERFLEAVETNDPKQVQEQADPNAHFDIGDRTYHGMDEIATKMFEEQEKIHLSVQIRDVKDHGDKAVIKAEFSSERNGKPHSKTVRIEVQAHNGQMVKLVMTDDQ | -0.309
DKDAQKKATEFLTAWEQGNESQLQKLMDPNAKVEIGDKVIDGREDWNRWIRERLKRMRFEIKSVDVQVHGDNVDINIDARVNHNGKPDRMTAKFVMRVHNGRIKSMTQHNDK | 1.29
